The target of this data set is T1, CutR (Mycobacterium sp. strain JC1, UniProt D5G1X9 1-320).
T1 sequence: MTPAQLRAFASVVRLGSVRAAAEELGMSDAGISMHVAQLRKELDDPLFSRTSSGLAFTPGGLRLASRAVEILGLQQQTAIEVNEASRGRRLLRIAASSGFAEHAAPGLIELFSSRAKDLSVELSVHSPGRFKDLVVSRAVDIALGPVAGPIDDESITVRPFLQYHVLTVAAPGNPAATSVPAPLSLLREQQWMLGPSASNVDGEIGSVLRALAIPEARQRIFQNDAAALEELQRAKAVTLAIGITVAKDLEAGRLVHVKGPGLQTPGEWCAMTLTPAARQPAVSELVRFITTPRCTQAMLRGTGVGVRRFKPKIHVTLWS
Kind of data set: EMSA; no CO; 50 mM Tris-HCl pH 8.0, 100 mM NaCl, 40% glycerol, 5 mM DTT, 2 mM EDTA, 4 °C 1 h; 10% native PAGE in 0.5x TBE at 4 °C. The note with it: protein: recombinant; tags: C-terminal His6; chain copies: 2; label: 5'-biotin (forward strand); blunt. Background: A gel shift assay detects complexes by their altered migration in electrophoresis.

B1: IR2 (29 bp) (dsDNA)
DNA 1: GGGCCAGTTAAGCGATTCCTTAAGGGGGG
DNA 2: CCCCCCTTAAGGAATCGCTTAACTGGCCC
With B1, the binding result was “binds”.
